The numbers were not newly measured in article PMC2794832 (Journal of nuclear medicine : official publication, Society …, 2008), which cites them from elsewhere.

For this data set, the system named is tumors of HEK cells stably transfected to express only SSTR2. As to conditions: mouse, in vivo.

As for “^111In-1,4,7,10-tetraazacyclododecane-1,4,7,10-tetraacetic acid-sst2-ANT [^111In-DOTA-sst2-ANT]”, the “uptake of the radiopharmaceutical in tumors” value is on record as “high uptake”.
